How the values were obtained:
[1] = test system: elastase; assay: Thermal stability at 55° C. of AT expressed in E. coli, elastase inhibiting activity measured every minute; type: physicochemical; conditions: FIG. 8
Protocol: The activity of AT was measured by evaluating the inhibition by AT of the elastase's activity to degrade peptides in accordance with the procedure described by Travis & Johnson in Methods in Enzymol., 80, 754 (1981). Specifically, the AT's activity to inhibit elastase was evaluated by: mixing elastase and AT extract to react them, adding thereto a substrate (prepared by dissolving succinyl-alanyl-alanyl-alanyl-para-nitroanilide (SIGMA S4760) in dimethyl sulfoxide) and measuring the change of absorbency at 410 nm to determine the residual elastase activity. The thermal stability of AT was estimated by determining its activity of inhibiting elastase, using AT treated at 55° C. in case cell extract is used or at 57° to 58° C. in case a purified AT is used. […]
The elastase inhibiting activity of AT was evaluated by using a modified method described by Travis et al. (Travis & Jonhson, Methods in Enzymol. 80, 754 (1981)). […]
(§1) The elastase inhibiting activity of AT was determined as follows: 10 μl of the enzyme solution, 10 to 50 μl of the AT extracts and the reaction buffer solution were mixed to make the final volume of 60 μl, and then reacted for 10 mins. After 430 μl of the reaction buffer solution and 10 μl of the substrate were added thereto, the change of absorbency at 410 nm was immediately measured for 3 mins.

[2] = test system: elastase; assay: Association constant to elastase (Beatty's method); type: biochemical
Protocol: Specifically, the AT's activity to inhibit elastase was evaluated by: mixing elastase and AT extract to react them, adding thereto a substrate (prepared by dissolving succinyl-alanyl-alanyl-alanyl-para-nitroanilide (SIGMA S4760) in dimethyl sulfoxide) and measuring the change of absorbency at 410 nm to determine the residual elastase activity. The thermal stability of AT was estimated by determining its activity of inhibiting elastase, using AT treated at 55° C. in case cell extract is used or at 57° to 58° C. in case a purified AT is used. As controls, a wild-type AT produced in E. coli or yeast cell and natural AT isolated and purified from human plasma were used.
From the reaction mixture containing the same concentrations (8 nM) of elastase and AT, samples of the mixture were taken every minute for 10 mins. 1 mM succinyl-alanyl-alanyl-alanyl-p-nitroanilide (SIGMAS4760) was added as a substrate to each sample. The elastase activity of each sample was determined by measuring the absorbency at 410 nm, and then the association constant was calculated from the plot slope of reciprocal of elastase concentration vs time.

[3] = test system: elastase; assay: Thermal inactivation of purified AT at 57-58° C., remaining elastase inhibiting activity; type: physicochemical; conditions: for half-life: purified AT
Protocol: The activity of AT was measured by evaluating the inhibition by AT of the elastase's activity to degrade peptides in accordance with the procedure described by Travis & Johnson in Methods in Enzymol., 80, 754 (1981). Specifically, the AT's activity to inhibit elastase was evaluated by: mixing elastase and AT extract to react them, adding thereto a substrate (prepared by dissolving succinyl-alanyl-alanyl-alanyl-para-nitroanilide (SIGMA S4760) in dimethyl sulfoxide) and measuring the change of absorbency at 410 nm to determine the residual elastase activity. The thermal stability of AT was estimated by determining its activity of inhibiting elastase, using AT treated at 55° C. in case cell extract is used or at 57° to 58° C. in case a purified AT is used. As controls, a wild-type AT produced in E. coli or yeast cell and natural AT isolated and purified from human plasma were used.
The elastase inhibiting activity of AT was evaluated by using a modified method described by Travis et al. (Travis & Jonhson, Methods in Enzymol. 80, 754 (1981)). As a reaction buffer, 50 mM Tris (pH 8.0) containing 50 mM NaCl was used, and 15 mM succinyl-alanyl-alanyl-alanyl-paranitro-anilide (SIGMA S4760) dissolved in dimethyl-sulfoxide was used as a substrate for elastase. An enzyme solution was prepared by dissolving elastase to the concentration of 0.3 μM in the reaction buffer solution containing 50% glycerol.
as §1
For the comparison of their thermal stability, various kinds of AT muteins were incubated at 57° C., from which samples were taken every minute. Then the remaining activity of AT muteins was determined in the same manner as described in Example 1 above and their half-life and thermal inactivation rate were calculated from the slope of the plot of a logalithmic value of the remaining activity vs time (see FIG. 3).

[4] = Table II, ATs produced in yeast and controls

| association constant ([2]; Table I, 8 nM elastase and 8 nM AT, purified AT) [M⁻¹ s⁻¹] | Substance | thermoresistance, times higher than the single mutant ATs [1] | association constant [2, 4] [M⁻¹ s⁻¹] | thermal resistance, times higher than that of the wild-type recombinant AT expressed in E. coli ([3]; at 58° C.) [times] | thermal resistance (in words) ([3]; at 58° C., produced in yeast) | half-life ([3]; at 58° C.) [min] | half-life ([3]; at 57° C.) [min] |
| --- | --- | --- | --- | --- | --- | --- | --- |
|  | multiple mutant AT wherein the 51st residue is leucine and the 374th is isoleucine: α-1-antitrypsin with two replacements: 51st leucine and 374th isoleucine, expressed in E. coli | at least 300 times |  |  |  |  |  |
|  | wild-type yeast AT (phenylalanine): wild-type α-1-antitrypsin produced in Saccharomyces diastaticus (pGAT11) |  | 1.5e+06 | 5.3 | a lower thermoresistance than that of the human plasma AT | 6.9 |  |
| 1.7e+06 | Human plasma AT: natural α-1-antitrypsin from human plasma (A9204), purified over Affi-Gel Blue and mono-Q columns |  | 1.7e+06 |  |  | 35.2 | 49.7 |
